In US7547676B2, “Antagonist peptides to the C5A chemotactic function of vitamin D binding protein” (The Research Foundation of State University of New York, priority 2004, dated 2009):

Columns and labels:
[1] = test system: differentiated HL-60 cells; assay: Chemotaxis assay, differentiated HL-60 cells responding to C5a, C5a plus DBP or ZAS; type: cell-based, Human; details: differentiated HL-60 cells; for enhancement of C5a-mediated chemotaxis (net cell movement): 100 pM C5a (FIG. 1: 25-200 pM) plus 50 nM of indicated DBP, 60 min at 37° C
Experimental: Cells (6×10^6/ml) were resuspended in chemotaxis buffer and treated either with chemotaxis buffer (control), 1 μM of peptide 1 (130-152), or 1 μM of peptide 2 (150-172) for 30 min at room temperature. The chemotactic response of differentiated HL-60 cells to 100 pM C5a alone, C5a plus 50 nM full-length natural DBP or 1% zymosan-activated serum (ZAS) was measured for 60 minutes at 37° C. Numbers represent net cell movement in 60 min, mean±SEM of 3 experiments.
Cells and cell culture: Human promyelocytic cell line HL-60 was obtained from ATCC (Rockville, Md.) and cultured in RPMI 1640 medium supplemented with 10% FBS. Differentiation of HL-60 cells was initiated with 250 μM Bt2cAMP for 48 hours.
Chemotaxis assay. Chemotaxis was performed as described previously (see Kew, R. R. et al., J. Leukoc. Biol. 58, 55-58 (1995)). In brief, 35 μl of C5a (0.01 to 1 nM) in the chemotaxis buffer (HBSS with 1% BSA, 10 mM HEPES) were placed in duplicate in the lower chamber of a 48-well chamber (Neuroprobe, Md.). The lower compartments were covered with a 5 μm pore cellulose nitrate filter and then 50 μl of the cell suspension (2.5×10^5/well) was pipetted into the upper compartments. The chemotactic chamber was incubated for 1 hour at 37° C. in a humidified incubator with 5% CO2. Following incubation, the filter was fixed, stained and mounted on a microscope slide. Cell movement was measured as the distance in microns that the leading front of the cells had migrated into the filter (see Zigmond, S. et al., J. Exp. Med. 137, 387 (1973)).

U937-C5aR cells = assay: C5a-induced intracellular calcium mobilization in U937-C5aR cells; type: cell-based, human; details: FIG. 11A; cells pretreated 30 min at 22° C. with 50 nM DBP
Experimental: FIG. 11A and FIG. 11B show the effect of DBP on C5a-induced intracellular calcium mobilization in U937-C5aR cells. U937-C5aR cells (10^7 cells/ml) were resuspended in HBSS-1% BSA containing 2 μM Fluo-3 AM and incubated at 37° C. for 40 minutes. Cells incubated without the dye were used as a control to measure autofluorescence (Fmin). Following the dye uptake, cells were washed twice then suspended at 5×10^6 cells/ml in HBSS containing 1% BSA. For the pretreatment experiments, cells were incubated for 30 min at 22° C. with 50 nM DBP or 0.5 μM DBP peptide 1 (p1). For each measurement, 400 μl of cell suspension was added to a cuvette and stimulated with the indicated concentration of C5a (FIG. 11A) or 0.1 nM C5a (FIG. 11B). Fluorescence was then measured immediately using a Perkin-Elmer LS-5 fluorometer at 505 nm excitation, 526 nm emission for Fluo-3 AM. Fmax was measured by treating labeled cells with 60 μM digitonin. Intracellular free calcium concentrations were calculated using the following formula: (Ca^2+)=Kd (F−Fmin)/(Fmax−F), where Kd=325 nM for Fluo-3 according to manufacturer (Molecular Probes). Data are presented as mean±SEM (n=4-6) of the increase in intracellular calcium concentration.
U937-C5aR cells (10^7 cells/ml) were resuspended in HBSS-1% BSA containing 2 μM Fluo-3 AM and incubated at 37° C. for 40 minutes. Cells incubated without the dye were used as a control to measure autofluorescence (Fmin). Following the dye uptake, cells were washed twice then suspended at 5×10^6 cells/ml in HBSS containing 1% BSA. Cells were incubated for 30 min at 22° C. with either 50 nM DBP or 0.5 μM DBP peptide. For each measurement, 400 μl of cell suspension was added to a cuvette and stimulated with 0.1 nM purified C5a. Fluorescence was then measured immediately using a Perkin-Elmer LS-5 fluorometer at 505 nm excitation, 526 nm emission for Fluo-3 AM. Fmax was measured by treating labeled cells with 60 μM digitonin. Intracellular free calcium concentrations were calculated using the following formula: (Ca2+)=Kd (F−Fmin)/(Fmax−F), where Kd=325 nM for Fluo-3 according to manufacturer (Molecular Probes)

B1: DBP: Purified human DBP obtained from Biodesign International (protein)
chain: LERGRDYEKNKVCKEFSHLGKEDFTSLSLVLYSRKFPSGTFEQVSQLVKEVVSLTEACCAEGADPDCYDTRTSALSAKSCESNSPFPVHPGTAECCTKEGLERKLCMAALKHQPQEFPTYVEPTNDEICEAFRKDPKEYANQFMWEYSTNYGQAPLSLLVSYTKSYLSMVGSCCTSASPTVCFLKERLQLKHLSLLTTLSNRVCSQYAAYGEKKSRLSNLIKLAQKVPTADLEDVLPLAEDITNILSKCCESASEDCMAKELPEHTVKLCDNLSTKNSKFEDCCQEKTAMDVFVCTYFMPAAQLPELPDVELPTNKDVCDPGNTKVMDKYTFELSRRTHLPEVFLSKVLEPTLKSLGECCDVEDSTTCFNAKGPLLKKELSSFIDKGQELCADYSENTFTEYKKKLAERLKAKLPDATPTELAKLVNKHSDFASNCCSINSPPLYCDSEIDAELKNIL
[1]; listed as natural DBP
  enhancement of C5a-mediated chemotaxis (net cell movement): significantly enhanced
[1]; listed as purified natural DBP
  enhancement of C5a-mediated chemotaxis (net cell movement): significantly enhanced movement to C5a
[1]; no C5a, chemotaxis and Ca2+ flux
  response of cells treated with DBP alone: no response
U937-C5aR cells
  effect on C5a-induced increase in intracellular calcium: significantly augments
